Each block holds one binder with its values, some of them ahead of it.
Legend:
[1] = target: T1, human recombinant CD16a extracellular domain protein, amino acids 17-208 with F at position 176 (CD16a-F176) (human, UniProt P08637 17-208); test: ELISA of crude VHH extracts of panned phage-library clones on coated antigen, anti-HA-HRP; positive = OD more than 5 times the control
T1 construct: range 17-208; Made in-house in 293F cells; also called human CD16a (F176)

[2] = target: T2, human recombinant FOLR1 extracellular domain protein, amino acids 25-233 (human, UniProt P15328 25-233); test: phage display panning and clone ELISA as in Examples 1-4
T2 construct: range 25-233; Made in-house in 293F cells
T2 sequence (P15328 25-233 limits assumed): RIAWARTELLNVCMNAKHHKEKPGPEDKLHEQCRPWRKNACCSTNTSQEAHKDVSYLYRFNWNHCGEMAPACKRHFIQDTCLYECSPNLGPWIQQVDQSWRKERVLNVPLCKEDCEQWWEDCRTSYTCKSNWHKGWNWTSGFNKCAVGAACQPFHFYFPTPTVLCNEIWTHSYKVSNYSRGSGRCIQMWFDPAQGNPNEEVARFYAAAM

[3] = target: T3, human recombinant CD16a extracellular domain protein, amino acids 17-208 with V at position 176 (CD16a-V176) (human, UniProt P08637 17-208); test: ELISA of crude VHH extracts of panned phage-library clones on coated antigen, anti-HA-HRP; positive = OD more than 5 times the control
T3 construct: range 17-208; Made in-house in 293F cells; also called human CD16a (V176)
T3 sequence (P08637 17-208 F176V limits assumed): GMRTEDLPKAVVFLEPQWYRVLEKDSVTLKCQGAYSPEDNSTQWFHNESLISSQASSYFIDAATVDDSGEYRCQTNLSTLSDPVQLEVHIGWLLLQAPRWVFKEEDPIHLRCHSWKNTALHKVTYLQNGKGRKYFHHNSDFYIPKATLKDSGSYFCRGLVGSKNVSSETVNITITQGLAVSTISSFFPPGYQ

[4] = target: T4, human recombinant Nkp46 extracellular domain protein, amino acids 22-254 (human, UniProt O76036 22-254); test: phage display panning and clone ELISA as in Examples 1-4
T4 construct: range 22-254; Made in-house in 293F cells
T4 sequence (O76036 22-254 limits assumed): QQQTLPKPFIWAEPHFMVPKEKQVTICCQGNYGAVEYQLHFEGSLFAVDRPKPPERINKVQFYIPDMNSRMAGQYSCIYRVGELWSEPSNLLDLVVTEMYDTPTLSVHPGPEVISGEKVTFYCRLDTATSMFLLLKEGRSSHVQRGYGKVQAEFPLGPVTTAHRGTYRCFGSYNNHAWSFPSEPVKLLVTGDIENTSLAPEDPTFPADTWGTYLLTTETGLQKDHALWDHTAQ

T1 sequence (P08637 17-208 limits assumed): as the sequence (P08637 17-208 F176V limits assumed) above, with V160F counted along it

- binding result [1]: binds
B1: anti-CD16a single-domain antibody clone 15E2 (VHH, crude extract from pMECS) (VHH)
VHH: QVQLVESGGGLVQAGDSLRLSCAASGGTFRIYAMGWFRQAPGKEREFVGSISMMRGITDYAESVKGRFTISRDNAKFTMYLQMNTLKPEDTAVYYCAIRERPPPMGWGLAGISYDYWGQGTQVTVSS
notes: Crude antibody extract of an E. coli TG1 clone; not shown: C-terminal tag(s) from the pMECS vector (HA tag detected with anti-HA-HRP, tag for nickel-column purification)

- binding result [2]: binds
B2: FOLR1-4F4 single-domain antibody (VHH)
VHH: QVQLVESGGGSVQAGGSLRLSCAASDGTYRRYCMGWFRQAPGKEREKVAAIYTGDGTTYYADSVKGRFTISQENAKNTMYLQMNSLKPEDTAMYYCAADRSGCSVAWSYSSFEDWGQGTQVTVSS
notes: Parental (not humanized) clone as screened

- binding result [3]: binds
B3: anti-CD16a single-domain antibody clone 14A3 (VHH, crude extract from pMECS) (VHH)
VHH: QVQLVESGGGLVQPGGSLRLSCEVSGRTFSYLALGWFRQAPGKEREFVAAASWGGGSTGYADSVKGRFAISRDNVKNTQYLQMNSLKPEDTAVYYCVVGRRFKGSVYYTPNEYEYWGQGTQVTVSS
notes: as for B1

- binding result [3]: binds
B4: anti-CD16a single-domain antibody clone 23D1 (VHH, crude extract from pMECS) (VHH)
VHH: QVQLVESGGGLVQAGGSLRLSCAVSGRTFSYLAMGWFRQAPGKEREFVAASSWGGGTSGYADSVKGRFAISRDNAKNTQYLQMNSLKPEDTAVYYCVVGRRFKGSVYYTPNEYEYWGQGTQVTVSS
notes: as for B1

- binding result [1]: binds
B5: anti-CD16a single-domain antibody clone 4B5 (VHH, crude extract from pMECS) (VHH)
VHH: QVQLVESGGGLVQAGGSLRLSCAASGGTFRIYAMGWFRQAPGKEREFVGSISMMRGITDYAESVKGRFTISRDNAKFTMYLQMNSLKSEDTAVYYCAKAVDKSPYGGWGWGPYDDWGQGTQVTVSS
notes: as for B1

- binding result [3]: binds
B6: anti-CD16a single-domain antibody clone 13G6 (VHH, crude extract from pMECS) (VHH)
VHH: QVQLVESGGGLVQPGGSLRLSCAASGRTFRIYAMGWFRQAPGKEREFVGSIRLMRGITDYADSVKGRFTISRDNAKFTMYLQMNTLKPEDTAVYYCAAVGSGGDFYTPSTSGEYRYWGQGTQVTVSS
notes: as for B1

- binding result [4]: binds
B7: Nkp46-7F10 single-domain antibody (VHH)
VHH: QVQLVESGGGLVQAGGSLRLSCAASGRTFSSYAMGWFRQAPGKEREFVAGISWSGDSTYYADSVKGRFTISRDNAKNTVGLQMNSLKPEDTAVYYCAAASGQVQTVVVVTDRWYHYWGQGTQVTVSS
notes: as for B2

Reference: patent EP4814013A1 (Nanjing Regenecore Biotech Co., Ltd., dated 2026)
